Test results taken from patent US8709741B2, “Methods of diagnosing a plasmodium infection” (priority 2009, dated 2014).
“Also recorded” adds a separate entry of the source. Read-outs that look alike come from different tables or passages of the source.

Columns and labels:
[1] = tested on: P. falciparum FcB1/Colombian strain; experiment: Anti-Plasmodium activity assay (dose-response, 3H-hypoxanthine incorporation), culture with human serum; type: cell-based; settings: for inhibition of P. falciparum development in vitro: standard P. falciparum cultures with serum
Method: (§1) The chloroquine-resistant P. falciparum FcB1/Colombian strain was used. Under the following culture conditions, the in vitro life cycle of the FcB1 strain was 48 hours. Cultures were grown in complete medium consisting of RPMI 1640 (Life Technologies, Inc.) supplemented with 11 mM glucose, 27.5 mM NaHCO3, 100 UI/mL penicillin, 100 μg/mL streptomycin, adjusted to pH 7.4 before addition of heat-inactivated human serum (A+ blood group, 8% final) or Albumax II® (0.5% final), according to the procedure of Trager and Jensen (1976). Parasites were routinely grown at 37° C. in human A+ RBCs (Red blood cells) at a 2% haematocrit and 2-6% parasitemia, in a 3% CO2, 6% O2 and 91% N2 atmosphere. Semi-synchronized cultures were established by Sorbitol (Lambros) treatment. Highly synchronized cultures (4 hour-window synchronization) were obtained by successive Plamion (Pasvol) and Sorbitol treatments. Parasitaemia and stage distribution were determined by optical examination of Diff-Quick stained culture smears. Parasitaemia (expressed in percent) is hundred times the number of parasitized erythrocytes divided by the total number of erythrocytes.
(§2) Dried preparations of the purified recombinant human sPLA2s were re-suspended at high concentration (usually 50 μM) in RPMI 0.05% BSA, and then tested individually for their capacity to inhibit the in vitro intra-erythrocytic development of P. falciparum. Dose-response assays based on ^3H-hypoxanthine incorporation by growing parasites were performed as in Guillaume et al. (2004). Radioactivity was measured with a 1450 Microbeta counter (Wallac, Perkin Elmer). Percentage of growth inhibition was calculated from the parasite-associated radioactivity compared with control without sPLA2. Values for the IC50 were determined from dose-response curves.

[2] = Specific activities of sPLA2s on human plasma (NEFA release, NEFA-C kit); type: biochemical; settings: for Specific activity ± SD (μmol NEFA/min × mg enzyme): whole human plasma, 37° C., linear part of kinetic curve, mean of three experiments
Method: Kinetic analysis of human plasma hydrolysis by sPLA2s was performed by mixing on ice 50 μL of crude plasma with recombinant sPLA2s at various final concentrations (respectively 2×, 5× and 10× the IC50 value). At time zero, the mixture was transferred to 37° C. Samples (7 μL) were taken after 5, 15, 30 and 60 minutes of incubation and quickly frozen at −20° C. An aliquot of plasma without enzyme was similarly processed. Concentration of non-esterified fatty acids (NEFAs) in each sample was measured by a discontinuous enzymatic method using the NEFA-C test kit from WAKO, following manufacturer's instructions. The amount of NEFAs in each enzyme-containing plasma sample was subtracted for NEFAs in enzyme-free plasma sample. Specific activity for each of the sPLA2s was determined from the linear part of the curve [NEFA]=f(t). Experiment was repeated three times with plasmas from different donors and different batches of sPLA2s.
Specific activities of sPLA2s on human plasma. Hydrolysis of plasma phospholipids by human and venom sPLA2s was assayed using different incubation times and enzymes concentrations. Hydrolysis was assessed by measuring the amount of NEFAs in samples using the colorimetric assay developed by WAKO (NEFA-C kit). Enzymatic production of NEFAs was corrected for endogenous production of NEFAs measured in the absence of sPLA2. Specific activity for each of the sPLA2s was determined from the linear part of the kinetic curve. Values are the mean of three independent experiments. SD: standard deviation. Anti-P. falciparum activities (IC50) of the respective sPLA2s are given for comparison.

[3] = Rosengren et al., 2006; cited from earlier work
P. falciparum = experiment: Anti-Plasmodium activity assay in Albumax II (serum substitute); type: cell-based; settings: Albumax II instead of serum
Method: as §1, with “Highly synchronized cultures (4 hour-window synchronization) were obtained by successive Plamion (Pasvol) and Sorbitol treatments.” left out, “Parasitaemia (expressed in percent) is hundred times the number of parasitized erythrocytes divided by the total number of erythrocytes.” left out
as §2, with “Dose-response assays based on ^3H-hypoxanthine incorporation by growing parasites were performed as in Guillaume et al. (2004).” left out, “curves. […]” for “curves.”

[4] = Enzymatic hydrolysis of purified lipoproteins (NEFA); type: biochemical, human; settings: 15 h at 37° C.
Method: CM/VLDL, LDL and HDL were purified from human plasma and used either fresh (F) or after minimal oxidization by air and light (Ox). After phospholipid content determination, plasma, LDL and HDL were adjusted to 1.6 mg PL/mL final concentration in PBS calcium. Because low amount was available, the CM/VLDL fraction was adjusted to 1.0 mg PL/mL. Each sample was incubated for 15 hours at 37° C., alone or in the presence of recombinant human GX sPLA2 (hGX PLA2; 25 nM), recombinant human GIIF sPLA2 (hGIIF PLA2; 125 nM), bee venom sPLA2 (bvPLA2; 0.18 nM) and Naja mossambica mossambica venom sPLA2 (Naja PLA2; 0.05 nM). NEFAs were quantified using the NEFA-C kit (WAKO). Values are the mean±SD of triplicate measurements. They were normalized by subtracting NEFA amount in the absence of enzyme. Two independent experiments with lipoproteins from different plasmas were performed, which gave similar qualitative results. Results from one experiment are shown;
Plasma and purified LDL and HDL were adjusted to 1.67 mg phospholipid (PL)/mL final concentration in PBS. Because purification yielded low amount of CM/VLDL, the CM/VLDL fraction was adjusted to 1.00 mg PL/mL. CaCl2 (1 mM final) was added to the lipoprotein fractions. 200 μL of each fraction were deposited in a 96-well plate and incubated for 15 hours at 37° C., alone or in the presence of recombinant human GX sPLA2 (hGX PLA2, 25.0 nM), recombinant human GIIF sPLA2 (hGIIF PLA2, 125.0 nM), bee venom sPLA2 (bvPLA2, 0.18 nM) and Naja mossambica mossambica venom sPLA2 (Naja PLA2, 0.05 nM). NEFAs were measured in triplicate using the NEFA-C kit (WAKO). Value from each fraction was normalized by subtracting the NEFA amount in the corresponding fraction without enzyme. Two independent experiments with lipoproteins from different plasmas were performed, which gave similar qualitative results. According to the experiment, maximum hydrolysis reached 50% or 65% of total PLs in the fraction. […]

[5] = culture in human red blood cells and serum, mean of independent dose-response assays, read-out: IC50 ± SD (anti-P. falciparum activity)
[6] = Table II, read-out: IC50 (nM), anti-P. falciparum activity given for comparison

Row | Molecule | IC50 [1, 5] [nM] | inhibition of P. falciparum development in vitro [1] | other results
1 | IB: recombinant human group IB secreted phospholipase A2 | > 1250 | non-toxic | 
2 | IID: recombinant human group IID secreted phospholipase A2 | > 250 | non-toxic | 
3 | XIIA: recombinant human group XIIA secreted phospholipase A2 (protein, UniProt Q9BZM1 23-189, looked up) Group XIIA secretory …: QEQAQTTDWRATLKTIRNGVHKIDTYLNAALDLLGGEDGLCQYKCSDGSKPFPRYGYKPSPPNGCGSPLFGVHLNIGIPSLTKCCNQHDRCYETCGKSKNDCDEEFQYCLSKICRDVQKTLGLTQHVQACETTVELLFDSVIHLGCKPYLDSQRAACRCHYEEKTDL | > 250 | non-toxic | 
4 | IIA: recombinant human group IIA secreted phospholipase A2 (inflammatory type) (protein, UniProt P14555 21-144, looked up) Phospholipase A2, membrane …: NLVNFHRMIKLTTGKEAALSYGFYGCHCGVGGRGSPKDATDRCCVTHDCCYKRLEKRGCGTKFLSYKFSNSGSRITCAKQDSCRSQLCECDKAAATCFARNKTTYNKKYQYYSNKHCRGSTPRC | > 1250 |  | inhibition of P. falciparum development in vitro ([1]; listed as GIIA): non-toxic; inhibition of P. falciparum development in vitro ([1]; listed as GIIA sPLA2): clearly inactive; also recorded: does not exhibit any inhibitory activity; hydrolysis of plasma ([2]; high concentration (1 μM), not shown): inefficient at hydrolysing plasma; hydrolysis of serum [3]: found inactive
5 | IIF: recombinant human group IIF secreted phospholipase A2, full length (protein, UniProt Q9BZM2 21-168, looked up) Group IIF secretory …: SLLNLKAMVEAVTGRSAILSFVGYGCYCGLGGRGQPKDEVDWCCHAHDCCYQELFDQGCHPYVDHYDHTIENNTEIVCSDLNKTECDKQTCMCDKNMVLCLMNQTYREEYRGFLNVYCQGPTPNCSIYEPPPEEVTCSHQSPAPPAPP | 14.3 ± 10.4 | active against P. falciparum | IC50 [1, 6]: 14.3 ± 13.4 nM; increase of IC50 value in Albumax II relative to its value in serum (P. falciparum): approximately 17.5 fold; Specific activity ± SD (μmol NEFA/min × mg enzyme) [2]: 0.92 ± 0.30 μmol NEFA/min × mg enzyme; hydrolysis of triglyceride-rich lipoproteins (CM/VLDL) ([4]; 125 nM): hydrolysed poorly; preferential order of lipoprotein hydrolysis ([4]; each sPLA2 at approximately 10×IC50): same preferential order than GX sPLA2
6 | III: recombinant human group III secreted phospholipase A2 (protein, UniProt Q9NZ20 20-509, looked up) Group 3 secretory …: GSPALRWYRTSCHLTKAVPGNPLGYLSFLAKDAQGLALIHARWDAHRRLQSCSWEDEPELTAAYGALCAHETAWGSFIHTPGPELQRALATLQSQWEACRALEESPAGARKKRAAGQSGVPGGGHQREKRGWTMPGTLWCGVGDSAGNSSELGVFQGPDLCCREHDRCPQNISPLQYNYGIRNYRFHTISHCDCDTRFQQCLQNQHDSISDIVGVAFFNVLEIPCFVLEEQEACVAWYWWGGCRMYGTVPLARLQPRTFYNASWSSRATSPTPSSRSPAPPKPRQKQHLRKGPPHQKGSKRPSKANTTALQDPMVSPRLDVAPTGLQGPQGGLKPQGARWVCRSFRRHLDQCEHQIGPREIEFQLLNSAQEPLFHCNCTRRLARFLRLHSPPEVTNMLWELLGTTCFKLAPPLDCVEGKNCSRDPRAIRVSARHLRRLQQRRHQLQDKGTDERQPWPSEPLRGPMSFYNQCLQLTQAARRPDRQQKSWSQ |  | non-toxic | 
7 | V: recombinant human group V secreted phospholipase A2 (protein, UniProt P39877 21-138, looked up) Phospholipase A2 group V: GLLDLKSMIEKVTGKNALTNYGFYGCYCGWGGRGTPKDGTDWCCWAHDHCYGRLEEKGCNIRTQSYKYRFAWGVVTCEPGPFCHVNLCACDRKLVYCLKRNLRSYNPQYQYFPNILCS | 162 ± 90.9 | active against P. falciparum | IC50 [1, 6]: 162 ± 90.9 nM; Specific activity ± SD (μmol NEFA/min × mg enzyme) [2]: 0.33 ± 0.09 μmol NEFA/min × mg enzyme; hydrolysis of serum [3]: found active
8 | IIE: recombinant human group IIE secreted phospholipase A2 (protein, UniProt Q9NZK7 20-142, looked up) Group IIE secretory …: NLVQFGVMIEKMTGKSALQYNDYGCYCGIGGSHWPVDQTDWCCHAHDCCYGRLEKLGCEPKLEKYLFSVSERGIFCAGRTTCQRLTCECDKRAALCFRRNLGTYNRKYAHYPNKLCTGPTPPC | > 250 | non-toxic | 
9 | XIIB: recombinant human group XIIB sPLA2-like protein (protein, UniProt Q9BX93 20-195, looked up) Group XIIB secretory …: QSDTSPDTEESYSDWGLRHLRGSFESVNSYFDSFLELLGGKNGVCQYRCRYGKAPMPRPGYKPQEPNGCGSYFLGLKVPESMDLGIPAMTKCCNQLDVCYDTCGANKYRCDAKFRWCLHSICSDLKRSLGFVSKVEAACDSLVDTVFNTVWTLGCRPFMNSQRAACICAEEEKEEL | > 250 | non-toxic | 
